In the supplement of paper PMC10567573:

B1: ZNF649 (parent)
chain: LVAHQRYHTGKTPFVCPECGQPCS
B2: SMARCE1 (parent)
chain: YHNSPAYLAYINAKSRAEAALEEE

Variants of: B1
Experiment: protein stability index of a GFP-peptide fusion (GPS, HEK-293T) (PSI 1-6); higher = more stable
Details: c terminus: a fixed tail appended
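Further: lentivirally expressed fusions sorted by FACS into six bins by GFP to DsRed ratio, PSI derived from sequencing read proportions per bin multiplied by bin number.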

In order of falling protein stability index:
1. P22Q  4.03
2. Q21G  3.93
3. P22C  3.85
4. P22Y  3.84
5. P22N  3.77
6. S24D  3.76
7. P22E  3.75
8. C23D  3.72
9. S24F  3.71
10. P22D  3.69
11. Q21D  3.67
12. C19D  3.63
13. P22K  3.6
14. Q21E  3.59
15. P22A  3.58
16. S24P  3.57
17. S24G  3.54
18. P22S  3.53
19. P17Q  3.51
20. P22V  3.5
21. Q21V  3.5
22. P17N  3.48
23. G20D  3.48
24. C23P  3.47
25. P22H  3.41
26. P17K  3.37
27. P17S  3.37
28. S24T  3.36
29. S24E  3.36
30. C23T  3.35
31. P17D  3.35
32. P22G  3.35
33. P22T  3.33
34. E18Q  3.31
35. P22R  3.28
36. C23A  3.27
37. C19T  3.26
38. P22I  3.25
39. G20N  3.25
40. Q21T  3.24
41. S24H  3.23
42. S24K  3.23
43. C19P  3.21
44. C23R  3.19
45. Q21K  3.19
46. E18D  3.18
47. P17E  3.16
48. C23H  3.15
49. C19S  3.15
50. C19K  3.14
51. G20Q  3.14
52. P22L  3.13
53. G20S  3.13
54. S24V  3.13
55. S24C  3.13
56. C23K  3.12
57. G20P  3.12
58. S24Q  3.12
59. E18S  3.11
60. G20T  3.11
61. P22F  3.1
62. C23E  3.09
63. Q21H  3.09
64. Q21C  3.08
65. S24W  3.08
66. G20E  3.07
67. C23N  3.06
68. Q21A  3.06
69. G20A  3.06
70. C19G  3.05
71. P17T  3.04
72. C19E  3.03
73. G20M  3.03
74. C23V  2.99
75. E18A  2.99
76. C23I  2.98
77. P17C  2.98
78. Q21W  2.97
79. S24N  2.97
80. S24A  2.94
81. P17G  2.92
82. C19Q  2.92
83. C19N  2.92
84. C19H  2.92
85. P22M  2.9
86. Q21P  2.9
87. C19A  2.89
88. G20H  2.88
89. C23G  2.87
90. P17H  2.86
91. Q21S  2.86
92. G20K  2.86
93. G20F  2.85
94. P17A  2.84
95. E18C  2.82
96. S24L  2.82
97. P17M  2.77
98. Q21Y  2.77
99. S24I  2.77
100. Q21L  2.74
101. G20C  2.74
102. C23Q  2.73
103. P17I  2.73
104. E18W  2.7
105. S24R  2.68
106. C23L  2.67
107. S24M  2.67
108. E18L  2.66
109. Q21N  2.66
110. Q21R  2.62
111. S24Y  2.62
112. E18I  2.61
113. P17V  2.59
114. G20L  2.59
115. C16V  2.58
116. E18M  2.58
117. C19M  2.58
118. C19I  2.58
119. Q21I  2.58
120. C23S  2.56
121. E18F  2.56
122. G20W  2.55
123. C23M  2.54
124. E18K  2.54
125. G20Y  2.52
126. G20R  2.52
127. C19R  2.51
128. C23F  2.49
129. P17Y  2.48
130. G20V  2.47
131. Q21M  2.44
132. C23W  2.42
133. C19V  2.42
134. E18T  2.4
135. C19L  2.39
136. P22W  2.38
137. E18H  2.38
138. P17W  2.37
139. C16Y  2.37
140. E18N  2.34
141. C23Y  2.31
142. E18V  2.31
143. C16T  2.27
144. E18Y  2.27
145. G20I  2.27
146. P17L  2.26
147. P17R  2.26
148. Q21F  2.21
149. E18R  2.18
150. P17F  2.16
151. C19Y  2.08
152. C19F  2.06
153. E18P  1.91
154. C16W  1.86
155. C19W  1.81
156. E18G  1.8

Variants of: B2
Experiment: as above
Details: c terminus: a fixed tail appended

In order of falling protein stability index:
1. H2K  5.07
2. H2D  4.99
3. H2E  4.87
4. H2R  4.83
5. H2V  2.84
6. H2S  2.5
7. H2A  2.37
8. H2M  1.96
9. H2P  1.84
10. H2T  1.7
11. H2Q  1.7
